The assay concerns the target T1, wild-type (WT Asp) peptide GEKKGNYVVTDH (also: biotin (site not given here)).
T1 chain: GEKKGNYVVTDH
The experiment in a line: SPR. In general terms: In SPR one partner is held on a chip, and binding of the other changes the refractive index at the surface.

Where no end group is shown, it is not given here.

B1: humanized version of the 1i8i Fab (Parent) (Fab, V domains shown)
VH: EVQLVESGGGLVQPGGSLRLSCVTSGFTFRKFGMSWVRQAPGKGLEWVASISTGGYNTYYSDSVKGRFTISRDNSKNTLYLQMNSLRAEDTAVYYCTRGYSSTSYAMDYWGQGTLVTVSS
VL: DIVLTQSPATLSLSPGERATLSCMTSTDIDDDMNWYQQKPGQAPRLLISEGNTLRPGVPARFSGSGSGTDFTLTISSLEPEDFAVYYCLQSFNVPLTFGQGTKVEIK
The term kon denotes the rate constant with which the complex forms. For B1, the kon stood at 338000 M⁻¹ s⁻¹.

Values taken from paper PMC3795957 (Nature biotechnology, 2013).
